# Measured values taken from patent US20070219354.
# T1: coumarin-CO-REVNFEVEFR
# T1 chain: REVNFEVEFR
# Biological target: T1, coumarin-CO-REVNFEVEFR
protein,measurement,value
"BACE 1, soluble (transmembrane domain and cytoplasmic extension excluded) human protein produced in a baculovirus expression system (protein) TQHGIRLPLRSGLGGAPLGLRLPRETDEEPEEPGRRGSFVEMVDNLRGKSGQGYYVEMTVGSPPQTLNILVDTGSSNFAVGAAPHPFLHRYYQRQLSSTYRDLRKGVYVPYTQGKWEGELGTDLVSIPHGPNVTVRANIAAITESDKFFINGSNWEGILGLAYAEIARPDDSLEPFFDSLVKQTHVPNLFSLQLCGAGFPLNQSEVLASVGGSMIIGGIDHSLYTGSLWYTPIRREWYYEVIIVRVEINGQDLKMDCKEYNYDKSIVDSGTTNLRLPKKVFEAAVKSIKAASSTEKFPDGFWLGEQLVCWQAGTTPWNIFPVISLYLMGEVTNQSFRITILPQQYLRPVEDVATSQDDCYKFAISQSSTGTVMGAVIMEGFYVVFDRARKRIGFAVSACHVHDEFRTAAVEGPFVTLDMEDCGYNIPQTDESTLMT","substrate processed (end point HPLC assay, 2 nM enzyme, 1.0 µM substrate, 30 min)",less than 10% of substrate is processed by BACE 1
